Laboratory results reported in PMC3895269 (RNA, 2014).

Molecular target: Geobacillus kaustophilus ribosomal protein S18 (Geobacillus kaustophilus, UniProt Q5KU71 1-78)
Assay: native gel or EMSA

- binding result: binds
B1: Geobacillus kaustophilus ribosomal protein S6 (natural protein)
chain: MRKYEIMYIIRPNMDDEARQALVERFNNVLKENGAEITNVTDWGKRRLAYEIQKYRDGYYMIVNVVSEPKAVQEFDRLARISEDIIRHIVVKEEE
